Measured values taken from PMC4983702.

Target: Aar-MBP fusion protein (E. coli (EAEC 042))
Experiment: SPR

B1: AggR-MBP fusion protein (natural protein)
chain: MKLKQNIEKEIIKINNIRIHQYTVLYTSNCTIDVYTKEGSNTYLRNELIFLERGINISVRLQKKKSTVNPFIAIRLSSDTLRRLKDALMIIYGISKVDACSCPNWSKGIIVADADDSVLDTFKSIDHNDDSRITSDLIYLISKIENNRKIIESIYISAVSFFSDKVRNTIEKDLSKRWTLAIIADEFNVSEITIRKRLESEYITFNQILMQSRMSKAALLLLDNSYQISQISNMIGFSSTSYFIRLFVKHFGITPKQFLTYFKSQ
  Kd: 20 to 40 nM
